Source: US20130005646A1 (Novo Nordisk, published 2013)
Starred links: 1 amine or outer side, 2 acyl side, 3 side chain; linkers in the order of their positions; H or OH if unused. Positions of bridges follow the written chain, without caps; N, C: chain ends. Groups on a side chain read outwards from the residue. No end group written: not given here. *: point of attachment. C20 diacid = O=C(O)CCCCCCCCCCCCCCCCCCC(=O)*; C18 diacid = O=C(O)CCCCCCCCCCCCCCCCC(=O)*; γGlu = O=C(O)[C@H](CCC(=O)[*:2])N[*:1]

Key:
[1] = molecular target: T1, human amylin 3(a) receptor (human calcitonin receptor + RAMP-3) (human, UniProt P30988 25-474; O60896 24-148); assay: cell-based or functional assay
T1 sequence (looked up) 1: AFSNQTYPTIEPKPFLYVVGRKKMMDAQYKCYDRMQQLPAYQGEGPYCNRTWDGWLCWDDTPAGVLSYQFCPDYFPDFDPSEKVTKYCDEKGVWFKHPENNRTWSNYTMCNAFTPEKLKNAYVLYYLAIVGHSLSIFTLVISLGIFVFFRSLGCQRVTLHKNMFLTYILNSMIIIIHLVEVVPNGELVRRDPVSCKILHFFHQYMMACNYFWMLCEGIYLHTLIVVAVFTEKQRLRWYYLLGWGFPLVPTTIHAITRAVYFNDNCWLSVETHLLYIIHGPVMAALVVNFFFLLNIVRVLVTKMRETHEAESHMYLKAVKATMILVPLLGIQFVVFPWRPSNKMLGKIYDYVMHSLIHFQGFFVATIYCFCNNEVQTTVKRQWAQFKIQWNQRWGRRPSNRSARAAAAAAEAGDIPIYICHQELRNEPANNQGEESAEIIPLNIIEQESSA
T1 sequence (looked up) 2: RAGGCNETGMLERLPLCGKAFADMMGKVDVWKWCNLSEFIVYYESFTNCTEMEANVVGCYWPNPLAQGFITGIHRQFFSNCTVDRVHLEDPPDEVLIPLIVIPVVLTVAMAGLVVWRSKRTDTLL

[2] = molecular target: T2, human calcitonin (a) receptor (human, UniProt P30988 25-474); assay: cell-based or functional assay
T2 sequence (looked up): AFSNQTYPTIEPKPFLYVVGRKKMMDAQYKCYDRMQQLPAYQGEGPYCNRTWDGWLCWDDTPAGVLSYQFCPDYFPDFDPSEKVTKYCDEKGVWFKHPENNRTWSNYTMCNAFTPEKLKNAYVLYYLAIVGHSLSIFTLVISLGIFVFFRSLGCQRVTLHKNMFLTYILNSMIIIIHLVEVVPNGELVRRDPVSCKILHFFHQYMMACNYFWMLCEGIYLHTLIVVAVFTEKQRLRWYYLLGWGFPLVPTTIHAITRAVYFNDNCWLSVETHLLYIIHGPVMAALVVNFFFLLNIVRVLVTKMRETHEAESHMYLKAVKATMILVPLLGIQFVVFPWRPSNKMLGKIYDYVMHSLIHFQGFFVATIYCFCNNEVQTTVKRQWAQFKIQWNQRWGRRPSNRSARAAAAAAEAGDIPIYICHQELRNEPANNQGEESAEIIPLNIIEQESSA

B1: N-alpha-[(S)-4-Carboxy-4-(19-carboxynonadecanoylamino)butyryl]-Gly-[Arg1,His35]-pramlintide (peptide)
peptide: {C20 diacid-γGlu}-GRCNTATCATQRLANFLVHSSNNFGPILPPTNVGSHTY-NH2
modifications: disulfide 3-8
SMILES: CC[C@H](C)[C@H](NC(=O)[C@@H]1CCCN1C(=O)CNC(=O)[C@H](Cc1ccccc1)NC(=O)[C@H](CC(N)=O)NC(=O)[C@H](CC(N)=O)NC(=O)[C@H](CO)NC(=O)[C@H](CO)NC(=O)[C@H](Cc1c[nH]cn1)NC(=O)[C@@H](NC(=O)[C@H](CC(C)C)NC(=O)[C@H](Cc1ccccc1)NC(=O)[C@H](CC(N)=O)NC(=O)[C@H](C)NC(=O)[C@H](CC(C)C)NC(=O)[C@H](CCCNC(=N)N)NC(=O)[C@H](CCC(N)=O)NC(=O)[C@@H](NC(=O)[C@H](C)NC(=O)[C@@H]1CSSC[C@H](NC(=O)[C@H](CCCNC(=N)N)NC(=O)CNC(=O)CC[C@H](NC(=O)CCCCCCCCCCCCCCCCCCC(=O)O)C(=O)O)C(=O)N[C@@H](CC(N)=O)C(=O)N[C@@H]([C@@H](C)O)C(=O)N[C@@H](C)C(=O)N[C@@H]([C@@H](C)O)C(=O)N1)[C@@H](C)O)C(C)C)C(=O)N[C@@H](CC(C)C)C(=O)N1CCC[C@H]1C(=O)N1CCC[C@H]1C(=O)N[C@H](C(=O)N[C@@H](CC(N)=O)C(=O)N[C@H](C(=O)NCC(=O)N[C@@H](CO)C(=O)N[C@@H](Cc1c[nH]cn1)C(=O)N[C@H](C(=O)N[C@@H](Cc1ccc(O)cc1)C(N)=O)[C@@H](C)O)C(C)C)[C@@H](C)O
B1 was tested, and the “Amylin receptor human EC50” value [1] was 0.045 nM and the “CTa receptor human EC50” value [2] was 0.0875 nM.

B2: N-epsilon1-[(S)-4-Carboxy-4-(17-carboxyheptadecanoylamino)butyryl]-[Glu14,His17,His35]-pramlintide (peptide)
peptide: K([γGlu-C18 diacid])CNTATCATQRLAEFLHHSSNNFGPILPPTNVGSHTY-NH2
modifications: disulfide 2-7; N-terminus assumed
SMILES: CC[C@H](C)[C@H](NC(=O)[C@@H]1CCCN1C(=O)CNC(=O)[C@H](Cc1ccccc1)NC(=O)[C@H](CC(N)=O)NC(=O)[C@H](CC(N)=O)NC(=O)[C@H](CO)NC(=O)[C@H](CO)NC(=O)[C@H](Cc1c[nH]cn1)NC(=O)[C@H](Cc1c[nH]cn1)NC(=O)[C@H](CC(C)C)NC(=O)[C@H](Cc1ccccc1)NC(=O)[C@H](CCC(=O)O)NC(=O)[C@H](C)NC(=O)[C@H](CC(C)C)NC(=O)[C@H](CCCNC(=N)N)NC(=O)[C@H](CCC(N)=O)NC(=O)[C@@H](NC(=O)[C@H](C)NC(=O)[C@@H]1CSSC[C@H](NC(=O)[C@@H](N)CCCCNC(=O)CC[C@H](NC(=O)CCCCCCCCCCCCCCCCC(=O)O)C(=O)O)C(=O)N[C@@H](CC(N)=O)C(=O)N[C@@H]([C@@H](C)O)C(=O)N[C@@H](C)C(=O)N[C@@H]([C@@H](C)O)C(=O)N1)[C@@H](C)O)C(=O)N[C@@H](CC(C)C)C(=O)N1CCC[C@H]1C(=O)N1CCC[C@H]1C(=O)N[C@H](C(=O)N[C@@H](CC(N)=O)C(=O)N[C@H](C(=O)NCC(=O)N[C@@H](CO)C(=O)N[C@@H](Cc1c[nH]cn1)C(=O)N[C@H](C(=O)N[C@@H](Cc1ccc(O)cc1)C(N)=O)[C@@H](C)O)C(C)C)[C@@H](C)O
With B2 the “Amylin receptor human EC50” value [1] was 0.12 nM and the “CTa receptor human EC50” value [2] was 0.286 nM.

B3: N-alpha-[(S)-4-Carboxy-4-(19-carboxynonadecanoylamino)butyryl]-Gly-[His1,Glu14,His17,Pro37]-pramlintide (peptide)
peptide: {C20 diacid-γGlu}-GHCNTATCATQRLAEFLHHSSNNFGPILPPTNVGSNTP-NH2
modifications: disulfide 3-8
SMILES: CC[C@H](C)[C@H](NC(=O)[C@@H]1CCCN1C(=O)CNC(=O)[C@H](Cc1ccccc1)NC(=O)[C@H](CC(N)=O)NC(=O)[C@H](CC(N)=O)NC(=O)[C@H](CO)NC(=O)[C@H](CO)NC(=O)[C@H](Cc1c[nH]cn1)NC(=O)[C@H](Cc1c[nH]cn1)NC(=O)[C@H](CC(C)C)NC(=O)[C@H](Cc1ccccc1)NC(=O)[C@H](CCC(=O)O)NC(=O)[C@H](C)NC(=O)[C@H](CC(C)C)NC(=O)[C@H](CCCNC(=N)N)NC(=O)[C@H](CCC(N)=O)NC(=O)[C@@H](NC(=O)[C@H](C)NC(=O)[C@@H]1CSSC[C@H](NC(=O)[C@H](Cc2c[nH]cn2)NC(=O)CNC(=O)CC[C@H](NC(=O)CCCCCCCCCCCCCCCCCCC(=O)O)C(=O)O)C(=O)N[C@@H](CC(N)=O)C(=O)N[C@@H]([C@@H](C)O)C(=O)N[C@@H](C)C(=O)N[C@@H]([C@@H](C)O)C(=O)N1)[C@@H](C)O)C(=O)N[C@@H](CC(C)C)C(=O)N1CCC[C@H]1C(=O)N1CCC[C@H]1C(=O)N[C@H](C(=O)N[C@@H](CC(N)=O)C(=O)N[C@H](C(=O)NCC(=O)N[C@@H](CO)C(=O)N[C@@H](CC(N)=O)C(=O)N[C@H](C(=O)N1CCC[C@H]1C(N)=O)[C@@H](C)O)C(C)C)[C@@H](C)O
In the case of B3, the “Amylin receptor human EC50” value [1] is reported as 0.052 nM and the “CTa receptor human EC50” value [2] is reported as 0.049 nM.

B4: N-alpha-[(S)-4-Carboxy-4-(19-carboxynonadecanoylamino)butyryl]-[Arg1,Glu14,His17,His35]-pramlintide (peptide)
peptide: {C20 diacid-γGlu}-RCNTATCATQRLAEFLHHSSNNFGPILPPTNVGSHTY-NH2
modifications: disulfide 2-7
SMILES: CC[C@H](C)[C@H](NC(=O)[C@@H]1CCCN1C(=O)CNC(=O)[C@H](Cc1ccccc1)NC(=O)[C@H](CC(N)=O)NC(=O)[C@H](CC(N)=O)NC(=O)[C@H](CO)NC(=O)[C@H](CO)NC(=O)[C@H](Cc1c[nH]cn1)NC(=O)[C@H](Cc1c[nH]cn1)NC(=O)[C@H](CC(C)C)NC(=O)[C@H](Cc1ccccc1)NC(=O)[C@H](CCC(=O)O)NC(=O)[C@H](C)NC(=O)[C@H](CC(C)C)NC(=O)[C@H](CCCNC(=N)N)NC(=O)[C@H](CCC(N)=O)NC(=O)[C@@H](NC(=O)[C@H](C)NC(=O)[C@@H]1CSSC[C@H](NC(=O)[C@H](CCCNC(=N)N)NC(=O)CC[C@H](NC(=O)CCCCCCCCCCCCCCCCCCC(=O)O)C(=O)O)C(=O)N[C@@H](CC(N)=O)C(=O)N[C@@H]([C@@H](C)O)C(=O)N[C@@H](C)C(=O)N[C@@H]([C@@H](C)O)C(=O)N1)[C@@H](C)O)C(=O)N[C@@H](CC(C)C)C(=O)N1CCC[C@H]1C(=O)N1CCC[C@H]1C(=O)N[C@H](C(=O)N[C@@H](CC(N)=O)C(=O)N[C@H](C(=O)NCC(=O)N[C@@H](CO)C(=O)N[C@@H](Cc1c[nH]cn1)C(=O)N[C@H](C(=O)N[C@@H](Cc1ccc(O)cc1)C(N)=O)[C@@H](C)O)C(C)C)[C@@H](C)O
With B4 the “Amylin receptor human EC50” value [1] was 0.082 nM and the “CTa receptor human EC50” value [2] was 0.175 nM.

B5: N-alpha-[(S)-4-Carboxy-4-(19-carboxynonadecanoylamino)butyryl]-[Arg1,Pro37]-pramlintide (peptide)
peptide: {C20 diacid-γGlu}-RCNTATCATQRLANFLVHSSNNFGPILPPTNVGSNTP-NH2
modifications: disulfide 2-7
SMILES: CC[C@H](C)[C@H](NC(=O)[C@@H]1CCCN1C(=O)CNC(=O)[C@H](Cc1ccccc1)NC(=O)[C@H](CC(N)=O)NC(=O)[C@H](CC(N)=O)NC(=O)[C@H](CO)NC(=O)[C@H](CO)NC(=O)[C@H](Cc1c[nH]cn1)NC(=O)[C@@H](NC(=O)[C@H](CC(C)C)NC(=O)[C@H](Cc1ccccc1)NC(=O)[C@H](CC(N)=O)NC(=O)[C@H](C)NC(=O)[C@H](CC(C)C)NC(=O)[C@H](CCCNC(=N)N)NC(=O)[C@H](CCC(N)=O)NC(=O)[C@@H](NC(=O)[C@H](C)NC(=O)[C@@H]1CSSC[C@H](NC(=O)[C@H](CCCNC(=N)N)NC(=O)CC[C@H](NC(=O)CCCCCCCCCCCCCCCCCCC(=O)O)C(=O)O)C(=O)N[C@@H](CC(N)=O)C(=O)N[C@@H]([C@@H](C)O)C(=O)N[C@@H](C)C(=O)N[C@@H]([C@@H](C)O)C(=O)N1)[C@@H](C)O)C(C)C)C(=O)N[C@@H](CC(C)C)C(=O)N1CCC[C@H]1C(=O)N1CCC[C@H]1C(=O)N[C@H](C(=O)N[C@@H](CC(N)=O)C(=O)N[C@H](C(=O)NCC(=O)N[C@@H](CO)C(=O)N[C@@H](CC(N)=O)C(=O)N[C@H](C(=O)N1CCC[C@H]1C(N)=O)[C@@H](C)O)C(C)C)[C@@H](C)O
In the case of B5, the “Amylin receptor human EC50” value [1] is reported as 0.034 nM and the “CTa receptor human EC50” value [2] is reported as 0.0385 nM.

B6: N-alpha-[(S)-4-Carboxy-4-(19-carboxynonadecanoylamino)butyryl]-[Arg1,His35]-pramlintide (peptide)
peptide: {C20 diacid-γGlu}-RCNTATCATQRLANFLVHSSNNFGPILPPTNVGSHTY-NH2
modifications: disulfide 2-7
SMILES: CC[C@H](C)[C@H](NC(=O)[C@@H]1CCCN1C(=O)CNC(=O)[C@H](Cc1ccccc1)NC(=O)[C@H](CC(N)=O)NC(=O)[C@H](CC(N)=O)NC(=O)[C@H](CO)NC(=O)[C@H](CO)NC(=O)[C@H](Cc1c[nH]cn1)NC(=O)[C@@H](NC(=O)[C@H](CC(C)C)NC(=O)[C@H](Cc1ccccc1)NC(=O)[C@H](CC(N)=O)NC(=O)[C@H](C)NC(=O)[C@H](CC(C)C)NC(=O)[C@H](CCCNC(=N)N)NC(=O)[C@H](CCC(N)=O)NC(=O)[C@@H](NC(=O)[C@H](C)NC(=O)[C@@H]1CSSC[C@H](NC(=O)[C@H](CCCNC(=N)N)NC(=O)CC[C@H](NC(=O)CCCCCCCCCCCCCCCCCCC(=O)O)C(=O)O)C(=O)N[C@@H](CC(N)=O)C(=O)N[C@@H]([C@@H](C)O)C(=O)N[C@@H](C)C(=O)N[C@@H]([C@@H](C)O)C(=O)N1)[C@@H](C)O)C(C)C)C(=O)N[C@@H](CC(C)C)C(=O)N1CCC[C@H]1C(=O)N1CCC[C@H]1C(=O)N[C@H](C(=O)N[C@@H](CC(N)=O)C(=O)N[C@H](C(=O)NCC(=O)N[C@@H](CO)C(=O)N[C@@H](Cc1c[nH]cn1)C(=O)N[C@H](C(=O)N[C@@H](Cc1ccc(O)cc1)C(N)=O)[C@@H](C)O)C(C)C)[C@@H](C)O
In the case of B6, the “Amylin receptor human EC50” value [1] is reported as 0.0745 nM and the “CTa receptor human EC50” value [2] is reported as 0.193 nM.
